Reference: doi:10.1101/2022.04.10.487811
pKd: −log10 of the molar value.

Molecular target: HA H7 HK17 (A/Hong Kong/125/2017(H7N9)) hemagglutinin (influenza A virus A/Hong Kong/125/2017(H7N9))
Assay: BLI

MEDI8852 Fab (wildtype)
pKd: 9.68
